Data reported in patent US20250388669A1 (published 2025).

T1: CD19 (UniProt P15391 20-556, limits assumed)
T1 construct: whole, on cells
T1 sequence (looked up): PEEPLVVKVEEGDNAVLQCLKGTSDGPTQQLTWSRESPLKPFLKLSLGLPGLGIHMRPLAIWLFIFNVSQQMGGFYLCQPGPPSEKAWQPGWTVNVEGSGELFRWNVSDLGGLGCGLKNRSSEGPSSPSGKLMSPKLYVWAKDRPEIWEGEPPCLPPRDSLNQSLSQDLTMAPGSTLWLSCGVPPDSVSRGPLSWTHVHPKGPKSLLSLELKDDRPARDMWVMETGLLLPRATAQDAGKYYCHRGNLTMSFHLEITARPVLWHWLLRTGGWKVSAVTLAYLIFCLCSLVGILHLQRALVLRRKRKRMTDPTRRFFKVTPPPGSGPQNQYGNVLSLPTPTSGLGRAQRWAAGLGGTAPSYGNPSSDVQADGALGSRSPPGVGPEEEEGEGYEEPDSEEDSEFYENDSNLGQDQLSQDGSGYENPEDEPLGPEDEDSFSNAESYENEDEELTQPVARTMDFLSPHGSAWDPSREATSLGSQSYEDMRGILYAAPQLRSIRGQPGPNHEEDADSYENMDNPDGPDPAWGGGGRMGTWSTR

B1: Ly2281 (bispecific antibody)
chain 1: QVTLKESGPALVKPTQTLTLTCTFSGFSLSTSGTCVSWIRQPPGKALEWLATICWEDSKGYNPSLKSRLTISKDTSKNQAVLTMTNMDPVDTATYYCARREDSGYFWFPYWGQGTLVTVSSASTKGPSVFPLAPSSKSTSGGTAALGCLVKDYFPEPVTVSWNSGALTSGVHTFPAVLQSSGLYSLSSVVTVPSSSLGTQTYICNVNHKPSNTKVDKKVEPKSCGGGGSGGGGSGGGGSGGGGSQVQLVQSGAEVKKPGASVKVSCKASGYTFAGFEMHWVRQAPGQGLEWMGAIDPKTGGTDYNQKFKDRVTMTRDTSISTAYMELSRLRSDDTAVYYCARDLGYFDVWGQGTLVTVSSGGGGSDKTHTCPPCPAPEAAGPSVFLFPPKPKDTLMISRTPEVTCVVVDVSHEDPEVKFNWYVDGVEVHNAKTKPREEQYNSTYRVVSVLTVLHQDWLNGKEYKCKVSNKALPAPIEKTISKAKGQPREPQVYTLPPSREEMTKNQVSLWCLVKGFYPSDIAVEWESNGQPENNYKTTPPVLDSDGSFFLYSKLTVDKSRWQQGNVFSCSVMHEALHNHYTQKSLSLSPG
chain 2: QVTLKESGPALVKPTQTLTLTCTFSGFSLSTSGTCVSWIRQPPGKALEWLATICWEDSKGYNPSLKSRLTISKDTSKNQAVLTMTNMDPVDTATYYCARREDSGYFWFPYWGQGTLVTVSSASTKGPSVFPLAPSSKSTSGGTAALGCLVKDYFPEPVTVSWNSGALTSGVHTFPAVLQSSGLYSLSSVVTVPSSSLGTQTYICNVNHKPSNTKVDKKVEPKSCGGGGSGGGGSGGGGSGGGGSDIQMTQSPSSLSASVGDRVTITCRASQDIRSNLNWYQQKPGGAVKLLIYYTSRLHSGVPSRFSGSGSGTDYTLTISSLQPEDFATYFCQQSEKLPRTFGGGTKVEIRGGGGSDKTHTCPPCPAPEAAGPSVFLFPPKPKDTLMISRTPEVTCVVVDVSHEDPEVKFNWYVDGVEVHNAKTKPREEQYNSTYRVVSVLTVLHQDWLNGKEYKCKVSNKALPAPIEKTISKAKGQPREPQVYTLPPSREEMTKNQVSLSCAVKGFYPSDIAVEWESNGQPENNYKTTPPVLDSDGSFFLVSKLTVDKSRWQQGNVFSCSVMHEALHNRFTQKSLSLSPG
light: NIQMTQSPSSLSASVGDRVTITCKAGQNVNNYLAWYQQKPGKAPKVLIFNANSLQTGVPSRFSGSGSGTDFTLTISSLQPEDFATYYCQQYNSWPTFGGGTKVEIKRTVAAPSVFIFPPSDEQLKSGTASVVCLLNNFYPREAKVQWKVDNALQSGNSQESVTEQDSKDSTYSLSSTLTLSKADYEKHKVYACEVTHQGLSSPVTKSFNRGEC
notes: PD-1 Fabs, central CD137 Fv
B2: Ly2280 (bispecific antibody)
chain 1: not shown
chain 2: QVTLKESGPALVKPTQTLTLTCTFSGFSLSTSGTCVSWIRQPPGKALEWLATICWEDSKGYNPSLKSRLTISKDTSKNQAVLTMTNMDPVDTATYYCARREDSGYFWFPYWGQGTLVTVSSASTKGPSVFPLAPSSKSTSGGTAALGCLVKDYFPEPVTVSWNSGALTSGVHTFPAVLQSSGLYSLSSVVTVPSSSLGTQTYICNVNHKPSNTKVDKKVEPKSCGGGGSGGGGSGGGGSGGGGSDIQMTQSPSSVSASVGDRVTITCRASQGIYSWLAWYQQKPGKAPNLLIYTASTLQSGVPSRFSGSGSGTDFTLTISSLQPEDFATYYCQQANIFPLTFGGGTKVEIKGGGGSDKTHTCPPCPAPEAAGPSVFLFPPKPKDTLMISRTPEVTCVVVDVSHEDPEVKFNWYVDGVEVHNAKTKPREEQYNSTYRVVSVLTVLHQDWLNGKEYKCKVSNKALPAPIEKTISKAKGQPREPQVYTLPPSREEMTKNQVSLSCAVKGFYPSDIAVEWESNGQPENNYKTTPPVLDSDGSFFLVSKLTVDKSRWQQGNVFSCSVMHEALHNRFTQKSLSLSPG
light: B1 light
notes: PD-1 Fabs, central CD40 Fv
B3: TM383 (antibody, V domains shown)
VH: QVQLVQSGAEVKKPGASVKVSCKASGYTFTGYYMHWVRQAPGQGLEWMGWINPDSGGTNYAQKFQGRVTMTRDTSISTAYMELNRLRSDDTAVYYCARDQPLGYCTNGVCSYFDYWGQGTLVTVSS
VL: DIQMTQSPSSVSASVGDRVTITCRASQGIYSWLAWYQQKPGKAPNLLIYTASTLQSGVPSRFSGSGSGTDFTLTISSLQPEDFATYYCQQANIFPLTFGGGTKVEIK
notes: Parent mAb; also called Anti-CD40 TM383; parent CD40 mAb
B4: Ly2118 (other)
chain 1: QVQLVQSGAEVKKPGASVKVSCKASGYTFTSYVMHWVRQKPGQGLEWIGYINPYNEGTESTDKFKGRATMTSDKSTSTVYMELSSLRSEDTAVYYCASIYYGYEGTYFGVWGQGTLVTVSSASTKGPSVFPLAPSSKSTSGGTAALGCLVKDYFPEPVTVSWNSGALTSGVHTFPAVLQSSGLYSLSSVVTVPSSSLGTQTYICNVNHKPSNTKVDKKVEPKSCGGGGSGGGGSGGGGSGGGGSQVQLVQSGAEVKKPGASVKVSCKASGYTFAGFEMHWVRQAPGQGLEWMGAIDPKTGGTDYNQKFKDRVTMTRDTSISTAYMELSRLRSDDTAVYYCARDLGYFDVWGQGTLVTVSSGGGGSDKTHTCPPCPAPEAAGPSVFLFPPKPKDTLMISRTPEVTCVVVDVSHEDPEVKFNWYVDGVEVHNAKTKPREEQYNSTYRVVSVLTVLHQDWLNGKEYKCKVSNKALPAPIEKTISKAKGQPREPQVYTLPPSREEMTKNQVSLWCLVKGFYPSDIAVEWESNGQPENNYKTTPPVLDSDGSFFLYSKLTVDKSRWQQGNVFSCSVMHEALHNHYTQKSLSLSPGGGGGSGGGGSGGGGSGGGGSQVTLKESGPALVKPTQTLTLTCTFSGFSLSTSGTCVSWIRQPPGKALEWLATICWEDSKGYNPSLKSRLTISKDTSKNQAVLTMTNMDPVDTATYYCARREDSGYFWFPYWGQGTLVTVSS
chain 2: QVQLVQSGAEVKKPGASVKVSCKASGYTFTSYVMHWVRQKPGQGLEWIGYINPYNEGTESTDKFKGRATMTSDKSTSTVYMELSSLRSEDTAVYYCASIYYGYEGTYFGVWGQGTLVTVSSASTKGPSVFPLAPSSKSTSGGTAALGCLVKDYFPEPVTVSWNSGALTSGVHTFPAVLQSSGLYSLSSVVTVPSSSLGTQTYICNVNHKPSNTKVDKKVEPKSCGGGGSGGGGSGGGGSGGGGSDIQMTQSPSSLSASVGDRVTITCRASQDIRSNLNWYQQKPGGAVKLLIYYTSRLHSGVPSRFSGSGSGTDYTLTISSLQPEDFATYFCQQSEKLPRTFGGGTKVEIRGGGGSDKTHTCPPCPAPEAAGPSVFLFPPKPKDTLMISRTPEVTCVVVDVSHEDPEVKFNWYVDGVEVHNAKTKPREEQYNSTYRVVSVLTVLHQDWLNGKEYKCKVSNKALPAPIEKTISKAKGQPREPQVYTLPPSREEMTKNQVSLSCAVKGFYPSDIAVEWESNGQPENNYKTTPPVLDSDGSFFLVSKLTVDKSRWQQGNVFSCSVMHEALHNRFTQKSLSLSPGGGGGSGGGGSGGGGSGGGGSNIQMTQSPSSLSASVGDRVTITCKAGQNVNNYLAWYQQKPGKAPKVLIFNANSLQTGVPSRFSGSGSGTDFTLTISSLQPEDFATYYCQQYNSWPTFGGGTKVEIK
light: EIVLTQSPATLSLSPGERATLSCRASSSVSYMHWYQQKPGQAPRPWIYATSNLASGIPARFSGSRSGTDYTLTISSLEPEDFAVYYCQQWSSNTLTFGGGTKVEIKRTVAAPSVFIFPPSDEQLKSGTASVVCLLNNFYPREAKVQWKVDNALQSGNSQESVTEQDSKDSTYSLSSTLTLSKADYEKHKVYACEVTHQGLSSPVTKSFNRGEC
notes: Tri-specific antibody: B7H3 Fabs, central CD137 Fv, terminal PD-1 Fv
B5: Ly2279 (bispecific antibody)
chain 1: not shown
chain 2: QVQLVQSGAEVKKPGASVKVSCKASGYTFTSYVMHWVRQKPGQGLEWIGYINPYNEGTESTDKFKGRATMTSDKSTSTVYMELSSLRSEDTAVYYCASIYYGYEGTYFGVWGQGTLVTVSSASTKGPSVFPLAPSSKSTSGGTAALGCLVKDYFPEPVTVSWNSGALTSGVHTFPAVLQSSGLYSLSSVVTVPSSSLGTQTYICNVNHKPSNTKVDKKVEPKSCGGGGSGGGGSGGGGSGGGGSDIQMTQSPSSVSASVGDRVTITCRASQGIYSWLAWYQQKPGKAPNLLIYTASTLQSGVPSRFSGSGSGTDFTLTISSLQPEDFATYYCQQANIFPLTFGGGTKVEIKGGGGSDKTHTCPPCPAPEAAGPSVFLFPPKPKDTLMISRTPEVTCVVVDVSHEDPEVKFNWYVDGVEVHNAKTKPREEQYNSTYRVVSVLTVLHQDWLNGKEYKCKVSNKALPAPIEKTISKAKGQPREPQVYTLPPSREEMTKNQVSLSCAVKGFYPSDIAVEWESNGQPENNYKTTPPVLDSDGSFFLVSKLTVDKSRWQQGNVFSCSVMHEALHNRFTQKSLSLSPG
light: B4 light
notes: B7H3 Fabs, central CD40 Fv
B6: Ly238 (antibody, V domains shown)
VH: QVQLQQSGAELVRPGSSVKISCKASGYAFSSYWMNWVKQRPGQGLEWIGQIWPGDGDTNYNGKFKGKATLTADESSSTAYMQLSSLASEDSAVYFCARRETTTVGRYYYAMDYWGQGTTVTVSS
VL: DIQLTQSPASLAVSLGQRATISCKASQSVDYDGDSYLNWYQQIPGQPPKLLIYDASNLVSGIPPRFSGSGSGTDFTLNIHPVEKVDAATYHCQQSTEDPWTFGGGTKLEIK
notes: Parent mAb; also called Anti-CD19 Ly238; parent anti-CD19 mAb

Key:
CD137 = target: T2, CD137 (human, UniProt Q07011 24-186); test: CD137 binding (method not given)
T2 construct: In the reporter assay it is whole, on GS-H2-huCD137 cells; also called 4-1BB; huCD137

CD40 = target: T3, CD40 (human, UniProt P25942 21-193); test: CD40 binding (method not given)
T3 construct: In the reporter assay it is whole, on GS-H2-huCD40 cells; also called huCD40
T3 sequence (P25942 21-193 limits assumed): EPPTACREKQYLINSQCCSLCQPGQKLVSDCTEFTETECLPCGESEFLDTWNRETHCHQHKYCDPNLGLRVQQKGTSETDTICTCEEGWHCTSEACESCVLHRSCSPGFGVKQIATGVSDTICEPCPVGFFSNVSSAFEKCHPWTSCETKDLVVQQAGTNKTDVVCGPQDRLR

CD19 = target: T1, CD19; test: FCM or ELISA (graded summary table)

Binder | EC50 (CD137) | EC50 (CD40) | also measured
B1 | 2.56 µg/mL |  | 
B2 |  | 3.17 µg/mL | 
B3 |  | 0.48 µg/mL | 
B4 | 1.78 µg/mL |  | 
B5 |  | 1.49 µg/mL | 
B6 |  |  | binding result (CD19): binds
